Measured values as given in publication PMC10928157, “The thymocyte-specific RNA-binding protein Arpp21 provides TCR repertoire diversity by binding to the 3’-UTR and promoting Rag1 mRNA expression”.

Tests used:
Arpp21 1-330 = Arpp21 1-330 (UniProt Q9DCB4 1-330); experiment: ITC; 25 C, TCEP; 20 mM sodium phosphate pH 6.5, 300 mM NaCl, 2 mM DTT (TCEP instead of DTT for ITC); NMR 298 K, 10% D2O, 50 uM protein; ITC 25 C, 20 uM protein, 200 uM RNA in syringe; conditions: protein: recombinant; tags: His-GB1 tag, TEV-cleaved
Arpp21 61-260 = Arpp21 61-260 (UniProt Q9DCB4 61-260); experiment: ITC; 25 C, TCEP; panel label, Methods and text say 61-260, legend says 130-260; 20 mM sodium phosphate pH 6.5, 300 mM NaCl, 2 mM DTT (TCEP instead of DTT for ITC); NMR 298 K, 10% D2O, 50 uM protein; ITC 25 C, 20 uM protein, 200 uM RNA in syringe; conditions: protein: recombinant; tags: His-GB1 tag, TEV-cleaved
Chain of Arpp21 61-260 (Q9DCB4 61-260): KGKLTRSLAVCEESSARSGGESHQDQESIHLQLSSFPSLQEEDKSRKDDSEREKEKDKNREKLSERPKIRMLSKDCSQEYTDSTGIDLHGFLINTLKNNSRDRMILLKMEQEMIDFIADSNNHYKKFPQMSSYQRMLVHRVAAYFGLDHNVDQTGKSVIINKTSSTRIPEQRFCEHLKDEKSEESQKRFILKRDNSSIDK

Chain of Arpp21 1-330 (Q9DCB4 1-330): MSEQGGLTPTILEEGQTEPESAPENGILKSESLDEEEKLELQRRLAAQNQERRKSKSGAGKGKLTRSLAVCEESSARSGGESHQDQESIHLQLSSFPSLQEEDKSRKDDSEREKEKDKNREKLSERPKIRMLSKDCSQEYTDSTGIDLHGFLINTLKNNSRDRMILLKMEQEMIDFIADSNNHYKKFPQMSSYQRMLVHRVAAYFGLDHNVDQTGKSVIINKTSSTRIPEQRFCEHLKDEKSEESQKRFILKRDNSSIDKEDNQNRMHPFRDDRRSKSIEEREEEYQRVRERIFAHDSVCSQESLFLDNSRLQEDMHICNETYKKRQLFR

Binder: UUUUUUUUU (ssRNA) [U9 RNA]
- Kd (Arpp21 1-330): 4.7 µM
- Kd (Arpp21 61-260): 4.8 µM
